Measured values as given in patent US7968692B2, “Elongase genes and uses thereof” (Abbott Laboratories, priority 1998, dated 2011).

Columns and labels:
Assay type in all cases: cell-based, Saccharomyces cerevisiae
S. cerevisiae 334 [1] = test: Pavlova sp. elongase PELO1 activity in yeast; conditions: for elongation of GLA to DGLA: 25 μM of GLA
Procedure: (§1) The construct pRPL-6-1 was transformed into S. cerevisiae 334 (Hoveland et al., supra) and screened for elongase activity. S. cerevisiae 334 containing the unaltered pYX242 vector was used as a negative control. The cultures were grown for 44 hours at 24°C, in selective media (Ausubel et al., supra), in the presence of 25 μM of GLA or EPA. In this study, DGLA or ω3-docosapentaenoic acid (DPA, 22:5n-3), respectively, was the predicted product of the elongase activity.
as §1, with “constructs pRPL-6-B2 and pRPL-6-A3 were” for “construct pRPL-6-1 was”, “24° C.,” for “24°C,”
To further confirm the substrate specificity of the algal elongation enzyme, described above and referred to herein as PELO1p, the recombinant yeast strain 334(pRPL-6-B2) was grown in minimal media containing n-6 fatty acids LA, GLA, DGLA, AA, or n-3 fatty acids ALA, STA, ETA, EPA, or 20:0, or 20:1. […] The levels of these fatty acids were 1.40% ADA and 2.54% […], respectively, of the total fatty acids in the strains containing the PELO1 sequence. […] No elongation of the saturated fatty acid 20:0, or monounsaturated fatty acid 20:1 was seen. Also, no elongation of the C18 substrates LA, GLA, ALA, or STA was seen.

S. cerevisiae 334 [2] = test: T. aureum elongase TELO1 activity in yeast
Procedure: The constructs pRAT-4-A1 through pRAT-4-D1 were transformed into S. cerevisiae 334 (Hoveland et al., supra) and screened for elongase activity. S. cerevisiae 334 containing the unaltered pYX242 vector was used as a negative control. The cultures were grown for 48 hours at 24° C., in selective media (Ausubel et al., supra), in the presence of 25 (3)M of GLA or EPA. In this study, DGLA or ω3-docosapentaenoic acid (DPA, 22:5n-3), respectively, was the predicted product of the elongase activity. […] This was expected in that the cDNA sequence of pRAT-4-A3 had several stops at the 5′ end of the sequence, which would result in a truncated version of the translated enzyme (FIG. 76). Although the DGLA level was very low for 334(pRAT-4-A2), the GLA level was the lowest in this sample; therefore, the conversion level of the fatty acid to its elongated form was significant at 28.4%. What was not expected was that there was definite substrate specificity among the expressed enzymes. […]
To further confirm the substrate specificity of TELO1p, the recombinant yeast strain 334(pRAT-4-A7) was grown in minimal media containing 25 μM of various PUFAs. […] The levels of these fatty acids were 1.07% (C20:2n-6), 5.84% (DGLA), and 0.76% (ADA), respectively, of the total fatty acids in the lysates of 334(pRAT-4-A7). […] TELO1p is also involved in the elongation of n-3 PUFAs ALA, STA, and EPA (FIG. 88). […] The levels of these fatty acids were 2.71% ETrA, 4.19% (ETA), and 1.99% (DPA), respectively, of the total fatty acids in the strain containing the TELO1 sequence. […] When STA was added as a substrate, there was also an accumulation of DTA in the culture. The level of this fatty acid was 0.74%, which represented 15.0% conversion of ETA, the two-carbon chain elongated product from substrate STA.

S. cerevisiae 334 [3] = test: Mouse elongase MELO7 activity in yeast; conditions: for amount of TPA: may not be significant
Procedure: The construct pRAE-87 was transformed into S. cerevisiae 334 (Hoveland et al., supra) and screened for elongase activity. The negative control strain was S. cerevisiae 334 containing pYX242 vector. The cultures were grown for 42-48 hours at 30° C., in selective media (Ausubel et al., supra), in the presence of 25 _M of GLA, AA, STA, EPA, DPA, or ADA. […] The levels of these fatty acids were 4.1% (DGLA), 6.33% (ADA), 3.4% (ETA), and 6.18% (DPA), respectively, of the total fatty acids in the strain containing the pRAE-87 sequence. […] MELO7 protein (MELO7) was not involved in the elongation of ADA. MELO7p also appeared to be involved in further elongation of the fatty acid DPA produced by two-carbon elongation to TPA when EPA was the added substrate, and when DPA was added. However, the small amounts of the product fatty acids (0.27% and 0.25% of TPA) may not be significant.

S. cerevisiae 334 [4] = test: Comparison of MAELO and S. cerevisiae ELO2 PUFA elongase activity in baker's yeast; conditions: 25 μM GLA; FIG. 12
Text: The ELO2 gene encoding for the yeast elongase was cloned from an S. cerevisiae genomic library (Origene, Rockville, Md.) using the primers RO514 (SEQ ID NO: 94) (5′-GGCTATGGATCCATGAATTCACTCGTTACTCAATATG-3′) and RO515 (SEQ ID NO: 95)(5′-CCTGCCAAGCTTTTACCTTTTTCTTCTGTGTTGAG-3′) incorporating the restriction sites (underlined) BamHI and HindIII (respectively). The ELO2 gene was cloned into the vector pYX242 at the BamHI and HindIII sites, designated pRELO, transformed into the S. cerevisiae host 334 (Hoveland et al., supra) and screened for PUFA elongase activity. The vector plasmid was used as a negative control and 334(pRAE-5) was grown to compare the PUFA elongase activity. The cultures were grown as previously described with no galactose in the media and 25 μM GLA added as a substrate. […] Additionally, when DGLA produced is expressed as a percent of the total lipids (shown in parenthesis, FIG. 12), the clones 334(pRELO-1) and 334 (pRELO-2) produced 0.153% and 0.2% DGLA respectively, while 334(pYX242) produced 0.185% DGLA. […] The M. alpina PUFA elongase activity is specific for this conversion as evidenced by the higher amount of DGLA produced compared to the control, 334(pYX242).

[5] = 25 μM of EPA, 44 hours at 24° C.
[6] = 25 μM STA added as a substrate, FIG. 88

B1: pRPL-6-1: PELO1 clone with a single mutation relative to pRPL-6-B2 that dramatically reduced conversion (protein)
chain: MMLAAGYLLVLSAARQSFQQDIDNPNGAYSTSWTGLPIVMSVVYLSGVFGLTKYFENRKPMTGLKDYMFTYNLYQVIINVWCVVAFLLEVRRAGMSLIGNKVDLGPNSFRLGFVTWVHYNNKYVELLDTLWMVLRKKTQQVSFLHVYHHVLLMWAWFVVVKLGNGGDAYFAGLMNSIIHVMMYSYYTMALLGWSCPWKRYLTQAQLVQFCICLAHSTWAAVTGAYPWRICLVEVWVMVSMLVLFTRFYRQAYAKEAKAKEAKKLAQEASQAKAVKAE
modifications: Pavlova sp. (specific species unknown)
DPA, of total fatty acids (S. cerevisiae 334 [1]; [5]): 0.34%
EPA (substrate), of total fatty acids (S. cerevisiae 334 [1]; [5]): 32.28%
elongation of GLA to DGLA (S. cerevisiae 334 [1]; 44 hours at 24° C.): no conversion of GLA to DGLA was seen

B2: PELO1: Pavlova sp. 459 elongase (SEQ ID NO:119) from plasmid pRPL-6-B2 (protein)
chain: MMLAAGYLLVLSAARQSFQQDIDNPNGAYSTSWTGLPIVMSVVYLSGVFGLTKYFENRKPMTGLKDYMFTYNLYQVIINVWCVVAFLLEVRRAGMSLIGNKVDLGPNSFRLGFVTWVHYNNKYVELLDTLWMVLRKKTQQVSFLHVYHHVLLMWAWFVVVKLGNGGDAYFGGLMNSIIHVMMYSYYTMALLGWSCPWKRYLTQAQLVQFCICLAHSTWAAVTGAYPWRICLVEVWVMVSMLVLFTRFYRQAYAKEAKAKEAKKLAQEASQAKAVKAE
modifications: Pavlova sp. (specific species unknown)
conversion of the substrate EPA to DPA (S. cerevisiae 334 [1]; 25 μM of EPA, 44 hours at 24° C., FIG. 99): significant levels of conversion
elongation of GLA to DGLA (S. cerevisiae 334 [1]; 44 hours at 24° C.): GLA was not elongated to DGLA
elongation of saturated fatty acid 20:0 or monounsaturated fatty acid 20:1 (S. cerevisiae 334 [1]; FIG. 101): No elongation
elongation of the C18 substrates LA, GLA, ALA, or STA (S. cerevisiae 334 [1]; FIG. 101): no elongation
conversion of AA to ADA (S. cerevisiae 334 [1]; substrate AA, FIG. 101): 14.0%
level of ADA, of the total fatty acids (S. cerevisiae 334 [1]; substrate AA, FIG. 101): 1.40%
conversion of EPA to product elongated by two carbon atoms (S. cerevisiae 334 [1]; substrate EPA, FIG. 101): 14.1%
level of EPA (so in the source), of the total fatty acids (S. cerevisiae 334 [1]; substrate EPA, FIG. 101): 2.54%

B3: TELO1: Thraustochytrium aureum 7091 elongase (SEQ ID NO:7) from plasmid pRAT-4-A7 (protein, listed as Thraustochytrium aureum)
chain: MANSSVWDDVVGRVETGVDQWMDGAKPYALTDGLPMMDVSTMLAFEVGYMAMLLFGIPIMKQMEKPFELKTIKLLHNLFLFGLSLYMCVETIRQAILGGYKVFGNDMEKGNESHAQGMSRIVYVFYVSKAYEFLDTAIMILCKKFNQVSFLHVYHHATIFAIWWAIAKYAPGGDAYFSVILNSFVHTVMYAYYFFSSQGFGFVKPIKPYITTLQMTQFMAMLVQSLYDYLFPCDYPQALVQLLGVYMITLLALFGNFFVQSYLKKPKKSKTN
conversion of AA to ADA (S. cerevisiae 334 [2]; 25 μM AA, FIG. 88): 3.5%
level of ADA, of the total fatty acids (S. cerevisiae 334 [2]; 25 μM AA, FIG. 88): 0.76%
conversion of ALA to ETrA (S. cerevisiae 334 [2]; 25 μM ALA, FIG. 88): 43.3%
level of ETrA, of the total fatty acids (S. cerevisiae 334 [2]; 25 μM ALA, FIG. 88): 2.71%
conversion of EPA to DPA (S. cerevisiae 334 [2]; 25 μM EPA, FIG. 88): 11.5%
level of DPA, of the total fatty acids (S. cerevisiae 334 [2]; 25 μM EPA, FIG. 88): 1.99%
conversion of GLA to DGLA (S. cerevisiae 334 [2]; 25 μM GLA, FIG. 88): 78.6%
level of DGLA, of the total fatty acids (S. cerevisiae 334 [2]; 25 μM GLA, FIG. 88): 5.84%
conversion of LA to C20:2n-6 (S. cerevisiae 334 [2]; 25 μM LA, FIG. 88): 23.2%
level of C20:2n-6, of the total fatty acids (S. cerevisiae 334 [2]; 25 μM LA, FIG. 88): 1.07%
conversion of ETA to DTA (S. cerevisiae 334 [2]; [6]): 15.0%
level of DTA (S. cerevisiae 334 [2]; [6]): 0.74%
conversion of STA to ETA (S. cerevisiae 334 [2]; 25 μM STA, FIG. 88): 85.3%
level of ETA, of the total fatty acids (S. cerevisiae 334 [2]; 25 μM STA, FIG. 88): 4.19%
levels of DPA (S. cerevisiae 334 [2]; EPA added as a substrate, 48 hours at 24° C., FIG. 81): significant levels of DPA

B4: MELO7: second mouse PUFA elongation enzyme (SEQ ID NO:6), homologue of HSELO1, expressed from pRAE-87 (protein, listed as Mus musculus)
chain: MEHFDASLSTYFKAFLGPRDTRVKGWFLLDNYIPTFVCSVIYLLIVWLGPKYMKNRQPFSCRGILQLYNLGLTLLSLYMFYELVTGVWEGKYNFFCQGTRSAGESDMKIIRVLWWYYFSKLIEFMDTFFFILRKNNHQITVLHVYHHATMLNIWWFVMNWVPCGHSYFGATLNSFIHVLMYSYYGLSSIPSMRPYLWWKKYITQGQLVQFVLTIIQTTCGVFWPCSFPLGWLFFQIGYMISLIALFTNFYIQTYNKKGASRRKDHLKGHQNGSVAAVNGHTNSFPSLENSVKPRKQRKD
amount of TPA (S. cerevisiae 334 [3]; DPA was added): 0.25%
amount of TPA (S. cerevisiae 334 [3]; EPA was the added substrate): 0.27%
conversion of AA to ADA (S. cerevisiae 334 [3]; substrate AA, FIG. 60): 36.0%
level of ADA, of the total fatty acids (S. cerevisiae 334 [3]; substrate AA, FIG. 60): 6.33%
elongation of ADA (S. cerevisiae 334 [3]; substrate ADA): not involved
conversion of EPA to DPA (S. cerevisiae 334 [3]; substrate EPA, FIG. 60): 57.4%
level of DPA, of the total fatty acids (S. cerevisiae 334 [3]; substrate EPA, FIG. 60): 6.18%
level of DGLA, of the total fatty acids (S. cerevisiae 334 [3]; substrate GLA, 42-48 hours at 30° C., FIG. 60): 4.1%
conversion of GLA to DGLA (S. cerevisiae 334 [3]; substrate GLA, FIG. 60): 78.7%
conversion of STA to ETA (S. cerevisiae 334 [3]; substrate STA, FIG. 60): 81.0%
level of ETA, of the total fatty acids (S. cerevisiae 334 [3]; substrate STA, FIG. 60): 3.4%

B5: 334(pRELO-1): individual clone of S. cerevisiae 334 overexpressing S. cerevisiae elongase ELO2 in pYX242 (pRELO) (protein, UniProt P25358 1-347, looked up)
Fatty acid elongase 2: MNSLVTQYAAPLFERYPQLHDYLPTLERPFFNISLWEHFDDVVTRVTNGRFVPSEFQFIAGELPLSTLPPVLYAITAYYVIIFGGRFLLSKSKPFKLNGLFQLHNLVLTSLSLTLLLLMVEQLVPIIVQHGLYFAICNIGAWTQPLVTLYYMNYIVKFIEFIDTFFLVLKHKKLTFLHTYHHGATALLCYTQLMGTTSISWVPISLNLGVHVVMYWYYFLAARGIRVWWKEWVTRFQIIQFVLDIGFIYFAVYQKAVHLYFPILPHCGDCVGSTTATFAGCAIISSYLVLFISFYINVYKRKGTKTSRVVKRAHGGVAAKVNEYVNVDLKNVPTPSPSPKPQHRRKR
DGLA produced as a percent of the total lipids (S. cerevisiae 334 [4]): 0.153%
amount of 20:3n-6 or DGLA produced relative to negative control pYX242 (S. cerevisiae 334 [4]): twice
